Data on one protein can be found in US20200332324.

The target of the data set is T1, E. coli type II fatty acid synthase ACP (AcpP), P0A6A8.
T1 chain: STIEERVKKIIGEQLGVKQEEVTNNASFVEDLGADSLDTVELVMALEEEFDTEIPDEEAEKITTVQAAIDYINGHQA

B1: 4'-phosphopantetheinyl transferase Sfp from Bacillus subtilis (protein)
chain: MKIYGIYMDRPLSQEENERFMSFISPEKREKCRRFYHKEDAHRTLLGDVLVRSVISRQYQLDKSDIRFSTQEYGKPCIPDLPDAHFNISHSGRWVICAFDSQPIGIDIEKTKPISLEIAKRFFSKTEYSDLLAKDKDEQTDYFYHLWSMKESFIKQEGKGLSLPLDSFSVRLHQDGQVSIELPDSHSPCYIKTYEVDPGYKMAVCAAHPDFPEDITMVSYEELL
As to B1, the “ACP phosphopantetheinylation with fluorescently labeled CoA (TAMRA-CoA), SDS-PAGE, UV fluorescence” value is “protein extracts from all the recombinant cyanobacteria strains constructed here allowed the conversion of E. coli ACP to its fluorescently labeled derivative”.
